# B1: His-PodJ(1-635) (domain or fragment, Caulobacter crescentus, UniProt Q9ZG88 1-635, looked up)
# chain: MTAASPWSVKGIDPKAREVAKDLARRSGMTLGEWLNRMIIEGDGQTADPRLAGDDVPNRAYLEIVKDDAPPRIEIAEHPADEVGRVALALDRLTQRIEAAEGRNAAAITGIDHSVRDALTRLGASEREQIAVAARFEGAVDELKTEQARATERLRRIESEAAGPRSAEALRALEGALGKVAGHLYEGEARTREAIATLEAKLNQQSSGDPSALVEAVVARLGERLEAAETRTSDALRELGASFQALDQRLGAVETANPATGVQEGLDSLAATLTQKMEAARLEMAAKLRESADGRFDRMERKLGEMAAHVQAAEQRSAQAIERMGREIVGVADAFNRRVHAAESRNASAIEQVGGEVARIAASVEHKLNRADSVQAQALEKLGGEIARITEKLAERIGSAERRNALAIDDVGEQVARVTERLNQRHERSSQELVDRIRQSEERTLRMLEEAREKIDSRLSEAQRKLEAAPPSPPPAQAPAPVATAQRPVPPAASPFEDNYFSQAASFSTSEDEADAFDAPPAPARSFEVAEFPAAEPEEPAFAHDDYAIADGFEPESPRYEVEPEVSDFAPAEPSRPMSTRDIIEQARAAARAAAASEGKGGKAKSAKKEKASKASGSLFSGFGGFSTKKSKARL
# Target: the molecule itself
# Assay: SEC
protein,measurement,value
B1,binding result,binds

# From article doi:10.1101/2021.07.20.452843 (bioRxiv, 2021)
